Drawing on patent publication US20120058906A1 (published 2012), this text covers ECL signal for two molecules.

Assay [1] concerns the target T1, rHuman P-Cadherin/Fc Chimera, CF (R&D Systems Cat#861-PC) (human, UniProt P22223 108-654).
T1 construct: Fc part of the bought chimera not given
As to the kind of experiment: MSD ECL multi-spot plate; Fab 98.1 nM; blank spot 210.

Assay [2] has as its target T2, rHuman CD44/Fc Chimera, CF (R&D Systems Cat#3660-CD) (human, UniProt P16070 21-220).
T2 construct: Fc part of the bought chimera not given
The description is as above.

Assay [3] addresses T3, rHuman ErbB2/Fc Chimera, CF (R&D Systems Cat#1129-ER) (human, UniProt P04626 23-652).
T3 construct: also called HER2/neu; human epidermal growth factor 2 receptor; Fc part of the bought chimera not given
Described as above.

Assay [4] deals with T4, rHuman HGF R/c-MET/Fc Chimera, CF (R&D Systems Cat#358-MT/CF) (human, UniProt P08581 25-932).
T4 construct: also called HGF R/Fc; hepatocyte growth factor receptor; Fc part of the bought chimera not given
The assay is described as above.

Assay [5] addresses T5, rHuman IGF-1 sR, (IGF-1 sR), CF (R&D Systems Cat#391-GR) (human, UniProt P08069 31-932).
T5 construct: also called insulin-like growth factor-1 soluble receptor; IGF-R1
The assay is described as above.

In assay [6] the target is T6, rHuman Erythropoietin R/Fc Chimera, CF (R&D Systems Cat#963-ER) (human, UniProt P19235 25-250).
T6 construct: also called EPO R/Fc; Epo R; Fc part of the bought chimera not given
T6 sequence: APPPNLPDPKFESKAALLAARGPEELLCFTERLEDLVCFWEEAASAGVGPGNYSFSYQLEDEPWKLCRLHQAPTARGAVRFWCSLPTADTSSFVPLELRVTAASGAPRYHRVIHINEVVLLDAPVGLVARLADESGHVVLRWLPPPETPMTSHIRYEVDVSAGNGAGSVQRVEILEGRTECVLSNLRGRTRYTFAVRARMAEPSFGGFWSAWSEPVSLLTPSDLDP
Described as above.

Assay [7] deals with T1, rHuman P-Cadherin/Fc Chimera, CF (R&D …). As to the kind of experiment: MSD ECL multi-spot plate; Fab 24.5 nM; blank spot 149.
For assay [8], the target named is T2, rHuman CD44/Fc Chimera, CF (R&D Systems …). The assay is described as above.
Assay [9] concerns the target T3, rHuman ErbB2/Fc Chimera, CF (R&D …). The description is as above.
In assay [10] the target is T4, rHuman HGF R/c-MET/Fc Chimera, CF (R&D …). Described as above.
Assay [11] deals with T5, rHuman IGF-1 sR, (IGF-1 sR), CF (R&D …). Described as above.
Assay [12] concerns the target T6, rHuman Erythropoietin R/Fc Chimera, CF …. The assay is described as above.
Assay [13] has as its target T1, rHuman P-Cadherin/Fc Chimera, CF (R&D …). As to the kind of experiment: MSD ECL multi-spot plate; Fab 392.5 nM; blank spot 338.
Assay [14] addresses T2, rHuman CD44/Fc Chimera, CF (R&D Systems …). The description is as above.
The target of assay [15] is T3, rHuman ErbB2/Fc Chimera, CF (R&D …). Described as above.
Assay [16] concerns the target T4, rHuman HGF R/c-MET/Fc Chimera, CF (R&D …). Described as above.
The target of assay [17] is T5, rHuman IGF-1 sR, (IGF-1 sR), CF (R&D …). The description is as above.
The target in assay [18] is T6, rHuman Erythropoietin R/Fc Chimera, CF …. Described as above.
For assay [19], the target named is T1, rHuman P-Cadherin/Fc Chimera, CF (R&D …). As to the kind of experiment: MSD ECL multi-spot plate; Fab 1570 nM; blank spot 866.
Assay [20] deals with T2, rHuman CD44/Fc Chimera, CF (R&D Systems …). The assay is described as above.
The target in assay [21] is T3, rHuman ErbB2/Fc Chimera, CF (R&D …). The assay is described as above.
The target in assay [22] is T4, rHuman HGF R/c-MET/Fc Chimera, CF (R&D …). The assay is described as above.
Assay [23] has as its target T5, rHuman IGF-1 sR, (IGF-1 sR), CF (R&D …). The description is as above.
The target of assay [24] is T6, rHuman Erythropoietin R/Fc Chimera, CF …. The assay is described as above.
The target in assay [25] is T7, rHuman CD44/Fc Chimera, CF (R&D Systems Cat#3660-CD) (human, UniProt P16070 21-220).
T7 construct: Bought Fc chimera; Fc part of the bought chimera not given
As to the kind of experiment: MSD ECL multi-spot, Fab 0.21 uM, blank 529; row label 3 may be swapped with 4.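 Further: blank spot per well as comparator with Hit at signal to blank ratio of 4 or more.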

The target of assay [26] is T8, rHuman Erythropoietin R/Fc Chimera, CF (R&D Systems Cat#963-ER) (human, UniProt P19235 25-250).
T8 construct: Bought Fc chimera; also called EPO R/Fc; EPOR; Fc part of the bought chimera not given
T8 sequence: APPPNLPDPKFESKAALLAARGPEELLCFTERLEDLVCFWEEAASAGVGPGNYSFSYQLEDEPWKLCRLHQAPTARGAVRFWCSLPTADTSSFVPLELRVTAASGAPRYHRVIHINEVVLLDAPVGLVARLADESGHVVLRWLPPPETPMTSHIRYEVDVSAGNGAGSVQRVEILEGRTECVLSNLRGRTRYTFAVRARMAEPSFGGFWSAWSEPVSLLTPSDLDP
Described as above.

Assay [27] concerns the target T9, Recombinant Human DLL4 (R&D Systems Cat#1506-D4/CF) (human, UniProt Q9NR61 27-524).
T9 construct: Bought recombinant protein; also called rHuman DLL4; delta-like protein 4
The assay is described as above.

For assay [28], the target named is T10, rHuman IGF-1 sR (insulin-like growth factor-1 soluble receptor), CF (R&D Systems Cat#391-GR) (human, UniProt P08069 31-932).
T10 construct: Bought soluble receptor; also called IGF-R1
The description is as above.

Assay [29] has as its target T11, rHuman HGF R/c-MET/Fc Chimera, CF (R&D Systems Cat#358-MT/CF) (human, UniProt P08581 25-932).
T11 construct: Bought Fc chimera; also called HGF R/Fc; Fc part of the bought chimera not given
The description is as above.

Assay [30] has as its target T12, rHuman Notch-1/Fc Chimera, CF (R&D Systems Cat#3647-TK) (human, UniProt P46531 19-526).
T12 construct: Bought Fc chimera; Fc part of the bought chimera not given
The assay is described as above.

Assay [31] addresses T13, rHuman ErbB2/Fc Chimera, CF (R&D Systems Cat#1129-ER) (human, UniProt P04626 23-652).
T13 construct: Bought Fc chimera; also called HER2/neu; Fc part of the bought chimera not given
The description is as above.

The target in assay [32] is T14, rHuman P-Cadherin/Fc Chimera, CF (R&D Systems Cat#861-PC) (human, UniProt P22223 108-654).
T14 construct: Bought Fc chimera; Fc part of the bought chimera not given
The description is as above.

The target of assay [33] is T15, rHuman EGF R/Fc Chimera, CF (R&D Systems Cat#344-ER) (human, UniProt P00533 25-645).
T15 construct: Bought Fc chimera; Fc part of the bought chimera not given
The assay is described as above.

B1: Fab VH1-46_IGHD3-10*01_IGHJ4*01 & O1_IGKJ1*01 (Fab, V domains shown)
VH: QVQLVQSGAEVKKPGASVKVSCKASGYTFTSYYMHWVRQAPGQGLEWMGIINPSGGSTSYAQKFQGRVTMTRDTSTSTVYMELSSLRSEDTAVYYCAREYYYGSGSYYNDYFDYWGQGTLVTVSS
VL: DIVMTQTPLSLPVTPGEPASISCRSSQSLLDSDDGNTYLDWYLQKPGQSPQLLIYTLSYRASGVPDRFSGSGSGTDFTLKISRVEAEDVGVYYCMQRIEFPSWTFGQGTKVEIK
notes: It was expressed in E. coli as a Fab; The heavy chain carries CH1 from Plasmid A with Flag and His tags; The light chain carries the kappa constant region from Plasmid C
As for B1, the ECL signal in assay [1] stood at 347 ECL signal; in assay [2] it was 265 ECL signal; in assay [3] it was 247 ECL signal; in [4], 335 ECL signal; in [5] it was 309 ECL signal; in assay [6] it was 5630 ECL signal. The ECL signal amounted to 257 ECL signal in [7]; 267 ECL signal in [8]; 241 ECL signal in [9]; 211 ECL signal in [10]; 239 ECL signal in assay [11]; 4530 ECL signal in assay [12]. For the same molecule, the ECL signal was found to be 459 ECL signal in assay [13]; 498 ECL signal in [14]; 539 ECL signal in [15]; 581 ECL signal in assay [16]; 466 ECL signal in assay [17]; 5860 ECL signal in assay [18]. Further, the ECL signal in [19] is 1790 ECL signal; in [20] it was 1380 ECL signal; in assay [21], 1260 ECL signal; in assay [22] it was 1640 ECL signal; in [23], 1430 ECL signal; in assay [24], 6120 ECL signal.

B2: Fab VH6-1_IGHD3-3*01_IGHJ4*01 & V4-3_IGLJ4*01 (Fab, V domains shown)
VH: QVQLQQSGPGLVKPSQTLSLTCAISGDSVSSNSAAWNWIRQSPSRGLEWLGRTYYRSKWYNDYAVSVKSRITINPDTSKNQFSLQLNSVTPEDTAVYYCAREYYDFWSGYYTDYFDYWGQGTLVTVSS
VL: QPVLTQPTSLSASPGASARLTCTLRSGINLGSYRIFWYQQKPESPPRYLLSYYSDSSKHQGSGVPSRFSGSKDASSNAGILVISGLQSEDEADYYCMIWHSSASFVFGGGTQLIIL
notes: Expressed in E. coli as Fab: heavy chain with CH1 plus Flag and His tags from Plasmid A, lambda light chain constant region from Plasmid E; also called Fab No. 3
For the molecule B2, the ECL signal in assay [25] came out at 837; in assay [26], 1120; in assay [27], 1070; in assay [28], 763; in assay [29] it was 744; in assay [30], 949. In addition, the results for the ECL signal in [31], in assay [32] and in assay [33] were 9230, 890 and 815, respectively.
